Consider two proteins from paper PMC8125816, “Relative Importance of Soluble and Microsomal Epoxide Hydrolases for the Hydrolysis of Epoxy-Fatty Acids in Human Tissues” (International Journal of Molecular Sciences, 2021).

One may read the Km as the concentration of substrate that gives half-maximal velocity. Broadly, the Vmax is the top rate of the reaction or transport when substrate is in excess. Broadly, the kcat is the maximal rate divided by the concentration of active sites. In general, kcat/Km refers to the turnover number divided by the Michaelis constant.

Holding throughout (assay): LC/MS-MS of diol formed
What all share (format): biochemical, Homo sapiens

Substrate in data set [1]: CCCCC/C=C\C[C@@H]1O[C@H]1/C=C/C(O)C/C=C\CCCC(=O)O
To be noted: Tris/HCl 0.1 M pH 9.0, 0.1 mg/mL BSA, 37 °C. From the text: (§1) LC/MS-MS of diol formed on mEH

Substrate in data set [2]: CCCCCC1OC1C/C=C\C/C=C\C/C=C\CCCC(=O)O
The note with it: Tris/HCl 0.1 M pH 9.0, 0.1 mg/mL BSA, 37 °C.
Description: as §1

Substrate in data set [3]: CC/C=C\C/C=C\CC1OC1C/C=C\C/C=C\C/C=C\CCC(=O)O
To be noted: Tris/HCl 0.1 M pH 9.0, 0.1 mg/mL BSA, 37 °C.
Description: as §1

Substrate in data set [4]: CCCCC/C=C\C/C=C\CC1OC1C/C=C\CCCC(=O)O
The note with it: Tris/HCl 0.1 M pH 9.0, 0.1 mg/mL BSA, 37 °C.
Description: as §1

Substrate in data set [5]: CCCCC/C=C\C[C@@H]1O[C@H]1/C=C/C(O)C/C=C\CCCC(=O)O
To be noted: sodium phosphate 0.1 M pH 7.4, 0.1 mg/mL BSA, 37 °C, crude membrane extract. An excerpt:
(§2) LC/MS-MS of diol formed on EH3

Substrate in data set [6]: CCCCCC1OC1C/C=C\C/C=C\C/C=C\CCCC(=O)O
The note with it: sodium phosphate 0.1 M pH 7.4, 0.1 mg/mL BSA, 37 °C, crude membrane extract.
Description: as §2

Substrate in data set [7]: CC/C=C\C/C=C\CC1OC1C/C=C\C/C=C\C/C=C\CCC(=O)O
To be noted: sodium phosphate 0.1 M pH 7.4, 0.1 mg/mL BSA, 37 °C, crude membrane extract.
Description: as §2

Substrate in data set [8]: CCCCC/C=C\C/C=C\CC1OC1C/C=C\CCCC(=O)O
The note with it: sodium phosphate 0.1 M pH 7.4, 0.1 mg/mL BSA, 37 °C, crude membrane extract.
Description: as §2

B1: mEH (Homo sapiens) (protein)
chain: MWLEILLTSVLGFAIYWFISRDKEETLPLEDGWWGPGTRSAAREDDSIRPFKVETSDEEIHDLHQRIDKFRFTPPLEDSCFHYGFNSNYLKKVISYWRNEFDWKKQVEILNRYPHFKTKIEGLDIHFIHVKPPQLPAGHTPKPLLMVHGWPGSFYEFYKIIPLLTDPKNHGLSDEHVFEVICPSIPGYGFSEASSKKGFNSVATARIFYKLMLRLGFQEFYIQGGDWGSLICTNMAQLVPSHVKGLHLNMALVLSNFSTLTLLLGQRFGRFLGLTERDVELLYPVKEKVFYSLMRESGYMHIQCTKPDTVGSALNDSPVGLAAYILEKFSTWTNTEFRYLEDGGLERKFSLDDLLTNVMLYWTTGTIISSQRFYKENLGQGWMTQKHERMKVYVPTGFSAFPFELLHTPEKWVRFKYPKLISYSYMVRGGHFAAFEEPELLAQDIRKFLSVLERQ
In the case of B1, in the data set “LC/MS-MS of diol formed [1]”, the Km was found to be 51 ± 14 µM, the Vmax amounted to 0.023 µmol/min/mg, the kcat is 0.019 ± 0.003 s⁻¹ and the kcat/Km is 370 ± 60 M⁻¹ s⁻¹. In addition, in the data set “LC/MS-MS of diol formed [2]”, the Km is 80 ± 6 µM, the Vmax turned out to be 0.053 µmol/min/mg, the kcat is 0.044 ± 0.003 s⁻¹ and the kcat/Km was 550 ± 10 M⁻¹ s⁻¹. Moreover, in the data set “LC/MS-MS of diol formed [3]”, the Km was 2.9 ± 0.4 µM, the Vmax stood at 0.445 µmol/min/mg, the kcat was 0.37 ± 0.01 s⁻¹ and the catalytic efficiency (kcat/Km) came to 130000 ± 20000 M⁻¹ s⁻¹. Moreover, in “LC/MS-MS of diol formed [4]”, the Km is 2.5 ± 0.6 µM, the Vmax amounted to 0.038 µmol/min/mg, the catalytic constant (kcat) was 0.032 ± 0.002 s⁻¹ and the kcat/Km stood at 13000 ± 1000 M⁻¹ s⁻¹.

B2: EH3 (Homo sapiens) (protein)
chain: MPELVVTALLAPSRLSLKLLRAFMWSLVFSVALVAAAVYGCIALTHVLCRPRRGCCGRRRSASPACLSDPSLGEHGFLNLKSSGLRLHYVSAGRGNGPLMLFLHGFPENWFSWRYQLREFQSRFHVVAVDLRGYGPSDAPRDVDCYTIDLLLVDIKDVILGLGYSKCILVAHDWGALLAWHFSIYYPSLVERMVVVSGAPMSVYQDYSLHHISQFFRSHYMFLFQLPWLPEKLLSMSDFQILKTTLTHRKTGIPCLTPSELEAFLYNFSQPGGLTGPLNYYRNLFRNFPLEPQELTTPTLLLWGEKDTYLELGLVEAIGSRFVPGRLEAHILPGIGHWIPQSNPQEMHQYMWAFLQDLLD
In the case of B2, in the data set “LC/MS-MS of diol formed [5]”, the Km came out at 14 ± 1 µM, the maximal velocity (Vmax) was 0.017 µmol/min/mg, the kcat is 0.014 ± 0.001 s⁻¹ and the kcat/Km turned out to be 1010 ± 30 M⁻¹ s⁻¹. In addition, in the data set “LC/MS-MS of diol formed [6]”, the Km stood at 76 ± 16 µM, the Vmax turned out to be 0.027 µmol/min/mg, the kcat turned out to be 0.018 ± 0.003 s⁻¹ and the specificity constant (kcat/Km) is 240 ± 10 M⁻¹ s⁻¹. Besides, in “LC/MS-MS of diol formed [7]”, the Km was 4.3 ± 1.2 µM, the Vmax was determined as 0.121 µmol/min/mg, the turnover number (kcat) amounted to 0.08 ± 0.01 s⁻¹ and the kcat/Km turned out to be 19000 ± 3000 M⁻¹ s⁻¹. Further, in the data set “LC/MS-MS of diol formed [8]”, the Km came out at 10 ± 0.5 µM, the Vmax came out at 0.044 µmol/min/mg, the kcat turned out to be 0.03 ± 0.001 s⁻¹ and the kcat/Km is 3000 ± 200 M⁻¹ s⁻¹.
